Four molecules from publication PMC10774353, “Multi-scale structures of the mammalian radial spoke and divergence of axonemal complexes in ependymal cilia” (Nature Communications, 2024) can be followed below.

The labels stand for the following.
T1: Rsph4a (mouse, UniProt Q8BYM7 1-716)
T1 construct: Rsph4a (radial spoke head protein 4 homolog A), mouse, NM_001162957; Two copies stand in each RS head
T1 sequence: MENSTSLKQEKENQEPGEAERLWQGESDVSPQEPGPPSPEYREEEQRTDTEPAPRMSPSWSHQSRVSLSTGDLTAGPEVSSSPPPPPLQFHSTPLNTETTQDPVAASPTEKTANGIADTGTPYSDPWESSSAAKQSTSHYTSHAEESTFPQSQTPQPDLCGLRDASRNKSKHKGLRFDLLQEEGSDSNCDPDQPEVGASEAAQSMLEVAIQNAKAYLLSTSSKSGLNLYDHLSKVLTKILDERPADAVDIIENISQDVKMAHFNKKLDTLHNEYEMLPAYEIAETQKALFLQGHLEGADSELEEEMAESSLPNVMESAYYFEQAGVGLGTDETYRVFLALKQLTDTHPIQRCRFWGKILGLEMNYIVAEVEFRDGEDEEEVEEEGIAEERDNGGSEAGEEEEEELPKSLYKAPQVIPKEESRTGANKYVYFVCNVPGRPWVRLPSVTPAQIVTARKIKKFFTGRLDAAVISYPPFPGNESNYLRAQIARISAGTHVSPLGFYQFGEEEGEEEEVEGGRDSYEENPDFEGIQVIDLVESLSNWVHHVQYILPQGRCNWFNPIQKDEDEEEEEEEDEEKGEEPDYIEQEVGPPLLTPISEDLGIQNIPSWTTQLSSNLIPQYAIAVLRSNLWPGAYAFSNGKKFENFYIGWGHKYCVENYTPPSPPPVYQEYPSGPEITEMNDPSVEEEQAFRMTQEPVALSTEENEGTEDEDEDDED

B1: Rsph9 (natural protein, mouse)
chain: MDADSLLLSLELASGSGQGLSPDRRASLLTSLMLVKRDYRFARVLFWGRILGLVADYYIAQGLSEDQLAPRKTLYSLNCTEWSLLPPATEEMAMQISVVSGRFMGDPSHEYEHTELQKVNEGEKVFDEEVVVQIKEETRLVSIIDQIDKAVAIIPRGALFKTPFGVTHVNRTFEGLPLSEVRKLSSYFHFREAIDLKNKTLLEKSDLEPSLDFLDSLEYDIPRGSWSIQMERGNALVVLRSLLWPGLTFYHAPRTKNYGYIYVGTGEKNMDLPFML
notes: Rsph9 (radial spoke head protein 9 homolog), mouse, NM_029338; non-tagged, in pcDNA3.4; Two copies stand in each RS head; Non-tagged
B2: FLAG-tagged Rsph16 (natural protein, mouse, UniProt Q80Y75 1-316, looked up)
chain: MGLDYYAVLQVTRNSEDAQIKKAYRKLALKNHPLKSSEPGAPEIFKQIAEAYDVLSDPVKRGIYDKFGEEGLKGGIPLEFGSQTPWTTGYVFHGNPDKVFHEFFGGDNPFSEFFDAEGNDIDLNFGGLWGRGVQKQDPPIERDLYLSLEDLFFGCTKKIKISRRVLNEDRYSSTIKDKILTIDVRPGWRQGTRITFEKEGDQGPNIIPADIIFIVKEKLHPRFRREHDNLFFVYPIPLGKALTCCTVEVKTLDDRLLNIPINDIVHPKYFKIVPGEGMPLPENPSKKGDLFIFFDIQFPTRLTPQKKQMLRQALLT
notes: Rsph16 (homologue of HSP40, DnaJ family), mouse, NM_153527; full-length gene amplified from cDNAs of mouse ependymal cells, in pcDNA3.4; Stands as a homodimer (the arch bridge Rsph16-Rsph16') in both the head-neck monomer and the head-neck dimer; not shown: 3xFLAG, N-terminal, kept
B3: Rsph23 (natural protein, mouse)
chain: MEVSMPLPQIYVEKTLALIKPDVVDKEEEIQDIILGSGFTIIQRRKLHLSPEHCSNFYVEQYGKMFFPNLTAYMSSGPLVAMILARHKAISYWKELMGPSNSLVAKETHPDSLRAIYGTDELRNALHGSNDFAASEREIRFMFPAVIIEPIPIGQAAKDYINLYVAPTLLQGLTELCKEKPPDPYLWLADWLMKNNPNKPKLCHFPVTEEP
notes: Rsph23, mouse, NM_080637
B4: Rsph3b (natural protein, mouse)
chain: MTDRNPRTAEASGLYTYSSRPRAVACQRRRHRDSILQPVEEPMSYGNIMYDRRVIRGNTYALPTGQVPGQPDPLELQRQQQARRRALARKRAQEQLKPRTPEPVEGRKHVDIQTELYLEEIADRIVEVDMECQTDAFLDRPPTPLFIPAKTGKDVATQILGGELFDFDLEVKPMLEVLVGKTIEQSLLEVMEEEELANLRARQYAYEEIRNVELAEVQRLEEQERRHREEKERRKKQQWEIVHKRNETLQKISALIFARQYLANLLPSVFDKLRNSGFFYDPIERDIEVGFLPWLMNEVEKSMEHSMVGRTVLDMLIRDVVERRINDYEHKEAMPPGQKTNVINGPNTVTDPSVTTLHTQKPVLDRVSSQPAPSQERKPVEEGGHLMAE
notes: Rsph3b (radial spoke head protein 3 homolog B), mouse, NM_001083945; non-tagged, in pcDNA3.4; Non-tagged

What all share (assay): cryo-EM structure; RS head-neck complex co-expressed in HEK293F, purified by Strep-Tactin then anti-FLAG beads, cross-linked by GraFix (0-0.1% glutaraldehyde, 10-40% glycerol, 4 °C); monomer map 3.28 Å, dimer map 3.57 Å
One data set addresses T1, Rsph4a. The note with it: both partners purified.
In the data set “FLAG-tagged Rsph16” the target is B2. The following applies: both partners purified.
Data set [1] concerns the molecule itself.
The data set “Rsph3b” has as its target B4. The following applies: both partners purified.

For B1, the binding result in the data set with Rsph4a and with FLAG-tagged Rsph16 was “binds” each time.

Take B2: the “stoichiometry N” value in data set [1] came to 2. B3: the binding result in the data set with Rsph3b and with FLAG-tagged Rsph16 was “binds” in each case. With B4, in the data set with Rsph4a, the binding result is listed as “binds”.
